Data as given in publication PMC5421877, “SOCS3 inhibits the pathological effects of IL-22 in non-melanoma skin tumor-derived keratinocytes” (Oncotarget, 2017).

Tested on: SOCS3 expression in healthy keratinocytes
Assay: SOCS3 mRNA and protein induction in healthy keratinocytes
Assay type: cell-based, human
Procedure: Figure 1 IL-22 induces SOCS3, which limits STAT3 and Erk1/2 activation (A) Keratinocyte cultures (n = 3) were stimulated with IL-22 or not for 10 min and protein lysates were subjected to immunoprecipitation and WB analyses for basal and phospho-IL-22R1, Tyk2 or Jak1. (B) WB of time-course experiments were performed on keratinocyte cultures (n = 3) to evaluate basal STAT3, Erk1/2 and MEK or phosphor-STAT3 (Tyr705 and Ser 727), phosphor-Erk1/2 and phospho-MEK. Anti-β-actin Ab was used to normalize sample loading. (C) SOCS mRNA and protein levels were detected by real-time PCR or WB analyses in cultured keratinocytes prepared from healthy skin (n = 3) left untreated or stimulated with IL-22 for the indicated time periods and normalized with β-actin values. (D) HaCaT cells stably transfected with myc-tagged SOCS1 (n = 4), SOCS2 (n = 2) and SOCS3 (n = 4) genes or control plasmids (mock, n = 3) were left untreated or stimulated with IL-22 for 15 min or 3 h and lysates subjected to WB with anti-phospho STAT3 (Tyr705), -phospho STAT3 (Ser727), -STAT3, -phospho Erk, -Erk, -c-myc and -β-actin Abs, as indicated. (E) Keratinocyte cultures were transiently transfected with siRNA specific for SOCS3 or control siRNA (NC). After 48-h transfection, cells were stimulated with IL-22 or not for the indicated time periods. In RNA interference experiments, data were obtained by three independent experiments, and SOCS3 depletion was assessed by real-time PCR and WB. […] Data are expressed as ratio of densitometric intensity (D. I.) of phosphorylated and unphosphorylated STAT3 and Erk1/2 proteins. p < 0.05 (*) values were considered significant.
Figure 4 SOCS3 and SOCS1 are poorly expressed in the epidermis of NMSC lesions and are not induced in transformed keratinocytes by IL-22 (A) Immunohistochemistry for SOCS3 and SOCS1 (red staining) was performed respectively on frozen or paraffin-embedded sections from biopsies of healthy skin (i), NLS (ii, iii) and LS (iv, v) areas of BCC and SCC, specimens. Psoriatic skin biopsies were also analyzed (vi). Sections were counterstained with Mayer's H&E and were visually evaluated by an pathologist experienced in dermatology. […] (B) Graphs show SOCS3 and SOCS1 mRNA levels which were detected by real-time PCR analysis in cultured SCC (CAL27 and CAL33) and BCC (M77015) skin tumor lines left untreated or stimulated with IL-22 or IFN-γ for 3 h and normalized for β-actin mRNA expression levels. […] SOCS1 was detected by IP using a specific anti-SOCS1 Ab, whereas SOCS3 by WB with an anti-SOCS3 Ab. […] Densitometric intensity (D.I.) of SOCS1 or SOCS3/β-actin was calculated from three independent experiments and numerically expressed as D. I. Ratio. *p < 0.01; **p < 0.05. […] SOCS3 and phospho-Tyr STAT3 levels were detected by WB and normalized to β-actin levels. […]

B1: IL-22: cytokine stimulus, R&D Systems (protein, UniProt Q9GZX6 34-179, looked up)
Interleukin-22: APISSHCRLDKSNFQQPYITNRTFMLAKEASLADNNTDVRLIGEKLFHGVSMSERCYLMKQVLNFTLEEVLFPQSDRFQPYMQEVVPFLARLSNRLSTCHIEGDDLHIQRNVQKLKDTVKKLGESGEIKAIGELDLLFMSLRNACI
time of peak SOCS3 protein induction (IL-22 time course, WB, n = 3): 3 h | time of peak SOCS3 mRNA induction (IL-22 time course, real-time PCR, n = 3): 1 h | SOCS3 mRNA and protein expression (healthy keratinocytes, 3 h mRNA, 6 h protein): significantly induced mRNA and protein expression of SOCS3 in healthy keratinocytes
